Data taken from patent US20240247076A1 (SUZHOU ALPHAMAB, published 2024).

B1: iFE5 (VHH, not shown: small tags and cut ends)
VHH: QVQLQESGGGSVQAGGSLRLSCAASGYTYSFNSMGWFRQAPGKEREGVAVIYLGSTHYADSVKGRFTISQDNAKNMVYLQMNSLKPEDTAMYYCAADLLEYDGTWFGSTYNYWGQGTQVTVSS
notes: also called antibody strain 5
B2: iFE50 (VHH, not shown: small tags and cut ends)
VHH: QVQLQESGGGLVQPGGSLRLSCAASGFTFSLYDMSWVRQAPGQGLEWVSAITNPGGSTYYADSVKDRFTISRDNAKNTLYLQMNSLKTEDTAVYYCAIGRRATFQREKDWGQGTQVTVSS
notes: also called antibody strain 50
B3: iFE13 (VHH, not shown: small tags and cut ends)
VHH: QVQLQESGGGSVQAGGSLRLSCAGDGYTYSMGAMAWFRQAPGKEREGVALIATSSGFISYTDSVKGRFTISQDDAKIYLQMNSLKPEDTAMYYCAAGTQFSWSPGSYNYWGQGTQVTVSS
notes: also called antibody strain 13
B4: iFE166 (VHH, not shown: small tags and cut ends)
VHH: QVQLQESGGGSVQAGGSLRLSCVASGFTGCRNIMSWYRQAPGKDREFVSAIDSDGVDYADSVKGRFSISQHNDKKTMYLQMTSLKLEDTAMYYCRRVDFGTTSQCRGNYWGQGTQVTVSS
B5: iFE43 (VHH, not shown: small tags and cut ends)
VHH: QVQLQESGGGSVQAGGSLRLSCAASGLRFSIYDWSWVRQAPGKGLEWVSAINSGGGVTSYADSVKGRVTISRDNAKNTLYLQMHSLKTEDTAVYYCATGDGGSWYRDGDWGQGTQVTVSS
notes: also called antibody strain 43
B6: iFE168 (VHH, not shown: small tags and cut ends)
VHH: QVQLQESGGGSVQAGGSLRLSCAASGYTFSNNFVGWFRQAPGKKREGVATIYTLGSSTYYADSVKGRFTISQDNAKNTLYLEMNSLKPEDTAMYYCAAARGWVSPLDPARFVYWGQGTQVTVSS
notes: also called antibody strain 168
B7: iFE163 (VHH, not shown: small tags and cut ends)
VHH: QVQLQESGGDSVQAGGSLRLSCIASGFTFDDSDMGWYRQAPGHQCEFVSHITNDGTTYYADSVKGRFTISRDNAKNTVYLQMNSLKPEDAAVYYCAADAWGGGRSTCVNPIGYWGQGTQVTVSS
B8: iFE56 (VHH, not shown: small tags and cut ends)
VHH: QVQLQESGGGSVQAGGSLRLSCAASGHTYSSNYCMAWFRQAPGKEREGVAAIYSDGSTSYADSVKGRFTISKDNAKNTLYLQIDSLKPEDTSLYYCAATAYEGSWTGKQPLCLLYEYTYWGQGTQVTVSS
notes: also called antibody strain 56
B9: iFE49 (VHH, not shown: small tags and cut ends)
VHH: QVQLQESGGDSVQAGGSLRLSCAASGLISTGLISTRHCMSWFRQAPGKEREEVAVIGSDGSTRYGDFAKGRFTISKDTAKNTLYLQMNSLEPEDTAMYYCAAGPLVSTASRRRTRCPEGPRENIYWGQGTQVTVSS
notes: also called antibody strain 49
B10: iFE148 (VHH, not shown: small tags and cut ends)
VHH: QVQLQESGGGSVQAGGSLRLSCVASGYTFNNNFVGWFRQAPGKEREGVAAIYSLGGSTYYADSVKGRFTISQDNAKNTVYLQMDSLKPEDTATYYCAGAITWVPPLSHRRYTYWGQGTQVTVSS
B11: iFE35 (VHH, not shown: small tags and cut ends)
VHH: QVQLQESGGGSVQAGGSLGLSCTASGFTFDDSDMGWYRQAPGNECELVSTISSDGRGFYADSVKGRFTISQDRAKNTVYLHMNSLKPEDTAVYYCAAGWYGSFCSGLGQGTQVTVSS
notes: also called antibody strain 35
B12: iFE97 (VHH, not shown: small tags and cut ends)
VHH: QVQLQESGGGSVQAGGSLRLSCTASEFTFDDSDMAWYRQAPGNECELVSTITSDGGTYYADSVKGRFTISQDNAKNTMYLQMNNLKPEDTAVYYCAADQWGSAEGDCTSSYPGGYWGQGTQVTVSS
notes: also called antibody strain 97
B13: iFE96 (VHH, not shown: small tags and cut ends)
VHH: QVQLQESGGGSVQAGGSLRLSCAASGFTASSNFMGWFRQAPGKEREGVAAIYTGGASTFYADSVKGRFTISQDNAKNTVYLEMDTLKPEDTAMYYCAAAPRWIAPLRADRYEYWGQGTQVTVSS
notes: also called antibody strain 96

These binders were tested against T1, recombinant human factor XI (hFXI) (human, UniProt P03951 19-625) (assay: ELISA, clone lysate on coated antigen).
T1 construct: also called hFXI-Chis; hFXI-CHis
Protocol: (§1) The FXI-binding positive phages obtained after panning were infected with blank E. coli and plated. Then 190 single colonies were randomly selected, named iFE 1 to iFE 190, and separately inoculated into 2TY-AG, and when the colonies were cultured to OD600 of about 0.8, IPTG was added to a final concentration of about 1 mM; after the expression was induced overnight at 25° C., single-domain antibodies were expressed in E. coli periplasm; the next day, the bacteria were harvested and lysed, and the supernatant was collected and used for ELISA assay. The plates were coated with hFXI, hApple and mApple, respectively, and then reacted overnight at 4° C., and the obtained sample lysis supernatant (the control group was E. coli lysis supernatant as a blank control) was added and reacted at room temperature for 2 hours. After washing, secondary antibody Goat anti-HA tag HRP (purchased from abcam) was added and reacted at room temperature for 2 hours. After washing, TMB chromogenic solution was added, absorbance values at 450 nm and 650 nm wavelengths were read, and a final absorbance value was obtained by subtracting the absorbance value at 650 nm wavelength from the absorbance value at 450 nm wavelength. When the OD value of the sample wells was more than 2 times larger than that of the control wells, the sample wells were determined as positive cloning wells.
B1 showed an OD of 1.33 OD.
B2 was tested, and the OD was 0.439 OD.
Binder B3 has an OD of 1.94 OD.
With B4 the OD was 1.24 OD.
In the case of B5, the OD is reported as 1.06 OD.
Binder B6 has an OD of 0.619 OD.
B7 showed an OD of 1.46 OD.
B8 was tested, and the OD was 1.42 OD.
B9 was tested, and the OD was 0.998 OD.
Binder B10 has an OD of 0.714 OD.
With B11 the OD was 1.8 OD.
Work on B12 yielded an OD of 1.3 OD.
B13 showed an OD of 0.407 OD.

What follows are binders tested against T2, hApple-chis (human, UniProt P03951 19-387) (assay: ELISA, clone lysate on coated antigen).
T2 construct: range 1-387; also called happle-chis-biotin
Protocol: as §1
Binder B1 has an OD of 1.62 OD.
B2 was tested, and the OD was 1.05 OD.
B3 gave an OD of 1.98 OD.
B4 was tested, and the OD was 1.69 OD.
B5 gave an OD of 1.38 OD.
B6 was tested, and the OD was 0.974 OD.
With B7 the OD was 1.09 OD.
For B8, the OD was 1.46 OD.
For B9, the OD was 1.26 OD.
B10 was tested, and the OD was 0.998 OD.
B11 showed an OD of 1.61 OD.
B12 gave an OD of 0.994 OD.
With B13 the OD was 0.58 OD.

Each binder was assayed against T3, mApple-chis (mouse, UniProt Q91Y47 19-389) (assay: ELISA, clone lysate on coated antigen).
T3 construct: range 1-389; also called mapple-chis-biotin
T3 sequence (looked up): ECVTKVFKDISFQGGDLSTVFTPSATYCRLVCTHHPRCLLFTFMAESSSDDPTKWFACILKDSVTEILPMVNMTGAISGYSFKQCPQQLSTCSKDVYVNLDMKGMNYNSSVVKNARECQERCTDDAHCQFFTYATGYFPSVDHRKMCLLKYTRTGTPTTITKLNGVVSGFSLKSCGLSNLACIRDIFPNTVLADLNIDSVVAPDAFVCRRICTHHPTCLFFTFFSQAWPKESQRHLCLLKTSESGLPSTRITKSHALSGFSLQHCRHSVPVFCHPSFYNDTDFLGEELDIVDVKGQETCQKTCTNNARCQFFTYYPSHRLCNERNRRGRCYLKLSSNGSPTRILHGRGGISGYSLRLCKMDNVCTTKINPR
Protocol: as §1
B1 showed an OD of 0.069 OD.
Work on B2 yielded an OD of 0.042 OD.
In the case of B3, the OD is reported as 0.056 OD.
Binder B4 has an OD of 1.83 OD.
Binder B5 has an OD of 0.04 OD.
B6 showed an OD of 0.843 OD.
B7 showed an OD of 1.07 OD.
For B8, the OD was 0.04 OD.
B9 gave an OD of 0.061 OD.
B10 was tested, and the OD was 0.681 OD.
With B11 the OD was 0.043 OD.
With B12 the OD was 0.774 OD.
Binder B13 has an OD of 0.334 OD.

These binders were tested against T2, hApple-chis (assay: ELISA, purified tagged VHH on coated antigen).
Protocol: (§2) Plates were coated with hApple and mApple proteins, respectively, at 0.5 μg/well and reacted overnight at 4° C. The plates were added with a gradient dilution series of the candidate single-domain antibodies with His and HA tags obtained in 1.4. and reacted at room temperature for 2 hours. After washing, a chicken anti-HA-tag secondary antibody (streptavidin-HRP, abcam) labeled with horseradish peroxidase was added and reacted at room temperature for 2 hours. After washing, a chromogenic solution was added, absorbance values at 450 nm and 650 nm wavelengths were read, and a final absorbance value was obtained by subtracting the absorbance value at 650 nm wavelength from the absorbance value at 450 nm wavelength. Data processing and mapping analysis were carried out by using software SotfMax Pro v5.4, and through four-parameter filling, binding curves of the candidate single-domain antibodies against FXI to hApple and mApple and EC₅₀ values were obtained so as to reflect the affinities of the candidate antibodies for hApple and mApple.
For B1, the EC50 was 0.0329 µg/mL.
B3 showed an EC50 of 0.0195 µg/mL.
Binder B4 has an EC50 of 0.0498 µg/mL.
Binder B6 has an EC50 of 0.0205 µg/mL.
In the case of B7, the EC50 is reported as 0.0162 µg/mL.
B8 was tested, and the EC50 was 0.323 µg/mL.
Binder B9 has an EC50 of 1.16 µg/mL.
In the case of B10, the EC50 is reported as 0.263 µg/mL.
Work on B11 yielded an EC50 of 0.0241 µg/mL.
B12 was tested, and the EC50 was 0.735 µg/mL.
B13 was tested, and the EC50 was 1.25 µg/mL and the “OD at 20 µg/mL” value was 1.3 OD.

The binders below were run against T3, mApple-chis (assay: ELISA, purified tagged VHH on coated antigen).
Protocol: as §2
For B4, the EC50 was 0.0468 µg/mL.
Work on B6 yielded an EC50 of 0.0584 µg/mL.
B7 was tested, and the EC50 was 0.0129 µg/mL.
B10 showed an EC50 of 0.255 µg/mL.
B12 was tested, and the EC50 was 1.23 µg/mL and the “OD at 20 µg/mL” value was 1.4 OD.
B13 was tested, and the “OD at 20 µg/mL” value was 0.8 OD.
